Target: proteasome with HTBH-tagged 20S subunit PSMB2 (human (expressed in HEK293) | human (endogenous in HEK293T)) (UniProt P49721)
Assay: affinity purification with mass spectrometry

UniProt P49721, sequence (P49721 whole entry, looked up, tested part not stated): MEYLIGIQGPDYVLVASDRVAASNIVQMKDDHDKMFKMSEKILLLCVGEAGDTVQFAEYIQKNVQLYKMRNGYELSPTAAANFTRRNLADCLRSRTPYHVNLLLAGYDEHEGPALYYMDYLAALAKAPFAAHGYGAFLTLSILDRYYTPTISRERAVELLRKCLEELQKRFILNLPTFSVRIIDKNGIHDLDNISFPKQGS

fold change of USP15 content on proteasomes, MG132-treated over untreated cells: > 4 fold
B1: USP15 (endogenous, HEK293T or HeLa cells) (enzyme)
chain: MAEGGAADLDTQRSDIATLLKTSLRKGDTWYLVDSRWFKQWKKYVGFDSWDKYQMGDQNVYPGPIDNSGLLKDGDAQSLKEHLIDELDYILLPTEGWNKLVSWYTLMEGQEPIARKVVEQGMFVKHCKVEVYLTELKLCENGNMNNVVTRRFSKADTIDTIEKEIRKIFSIPDEKETRLWNKYMSNTFEPLNKPDSTIQDAGLYQGQVLVIEQKNEDGTWPRGPSTPKSPGASNFSTLPKISPSSLSNNYNNMNNRNVKNSNYCLPSYTAYKNYDYSEPGRNNEQPGLCGLSNLGNTCFMNSAIQCLSNTPPLTEYFLNDKYQEELNFDNPLGMRGEIAKSYAELIKQMWSGKFSYVTPRAFKTQVGRFAPQFSGYQQQDCQELLAFLLDGLHEDLNRIRKKPYIQLKDADGRPDKVVAEEAWENHLKRNDSIIVDIFHGLFKSTLVCPECAKISVTFDPFCYLTLPLPMKKERTLEVYLVRMDPLTKPMQYKVVVPKIGNILDLCTALSALSGIPADKMIVTDIYNHRFHRIFAMDENLSSIMERDDIYVFEININRTEDTEHVIIPVCLREKFRHSSYTHHTGSSLFGQPFLMAVPRNNTEDKLYNLLLLRMCRYVKISTETEETEGSLHCCKDQNINGNGPNGIHEEGSPSEMETDEPDDESSQDQELPSENENSQSEDSVGGDNDSENGLCTEDTCKGQLTGHKKRLFTFQFNNLGNTDINYIKDDTRHIRFDDRQLRLDERSFLALDWDPDLKKRYFDENAAEDFEKHESVEYKPPKKPFVKLKDCIELFTTKEKLGAEDPWYCPNCKEHQQATKKLDLWSLPPVLVVHLKRFSYSRYMRDKLDTLVDFPINDLDMSEFLINPNAGPCRYNLIAVSNHYGGMGGGHYTAFAKNKDDGKWYYFDDSSVSTASEDQIVSKAAYVLFYQRQDTFSGTGFFPLDRETKGASAATGIPLESDEDSNDNDNDIENENCMHTN
